The values that follow come from patent publication US20170058042A1 (Genentech, published 2017).

Assay [1] addresses T1, human Ly6E (native, in human tumor cells, xenograft tumors and human tissues) (human, UniProt Q16553 21-101).
T1 sequence: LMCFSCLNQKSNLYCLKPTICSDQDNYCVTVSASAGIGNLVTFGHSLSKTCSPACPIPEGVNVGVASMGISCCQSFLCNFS
Kind of assay: cell-based or functional assay.

Assay [2] concerns the target T2, cynomolgus monkey Ly6E (native, in cynomolgus monkey tissues) (cynomolgus monkey, UniProt Q16553 21-101 (human entry)).
T2 construct: Endogenous protein in normal cynomolgus monkey tissue sections (IHC); also called cyno Ly6E
T2 chain: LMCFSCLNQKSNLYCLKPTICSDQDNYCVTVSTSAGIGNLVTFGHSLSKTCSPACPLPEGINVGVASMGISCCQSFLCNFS
Description: IHC on normal cynomolgus monkey tissues.

B1: humanized anti-Ly6E (hu9B12 v12) ADC (MC-vc-PAB-MMAE) (antibody, V domains shown)
VH: EVQLVESGPALVKPTQTLTLTCTVSGFSLTGYSVNWIRQPPGKALEWLGMIWGDGSTDYNSALKSRLTISKDTSKNQVVLTMTNMDPVDTATYYCARDYYFNYASWFAYWGQGTLVTVSS
VL: DIQMTQSPSSLSASVGDRVTITCSASQGISNYLNWYQQKPGKTVKLLIYYTSNLHSGVPSRFSGSGSGTDYTLTISSLQPEDFATYYCQQYSELPWTFGQGTKVEIK
For the molecule B1, the “EC50 (cell killing, CellTiter-Glo, HCC1569 X2 cells, 5 days)” value in assay [1] is 4 nM.

B2: rabbit anti-Ly6E antibody clone GEN-93-8-1 (antibody, V domains shown)
VH: QSVEESGGRLVTPGTPLTLTCATSGFSLSIYDMTWVRQAPGKGLEWIGVIYTSGGAYYANWAKGRFTISRTSTTVDLRMTSPTTEDTATYFCVRNWAHGSDLWGQGTLVTVSS
VL: DPVVTQTPSSASAAVGGTVSISCQSSQSVYNNNYLGWYQQKPGQPPKLLIYDASKLASGVPSRFKASGSGTQFALTISDLECDDAATYYCVGGYPGSLNVFGGGTEVVVK
notes: Rabbit monoclonal IgG; also called antibody GEN-93-8-1
For the molecule B2, in assay [2], the binding result is “binds”.
